Earlier results in paper PMC6716120.

Biological target: hexon (Human adenovirus 5) (UniProt P04133)
Sequence (P04133 2-952): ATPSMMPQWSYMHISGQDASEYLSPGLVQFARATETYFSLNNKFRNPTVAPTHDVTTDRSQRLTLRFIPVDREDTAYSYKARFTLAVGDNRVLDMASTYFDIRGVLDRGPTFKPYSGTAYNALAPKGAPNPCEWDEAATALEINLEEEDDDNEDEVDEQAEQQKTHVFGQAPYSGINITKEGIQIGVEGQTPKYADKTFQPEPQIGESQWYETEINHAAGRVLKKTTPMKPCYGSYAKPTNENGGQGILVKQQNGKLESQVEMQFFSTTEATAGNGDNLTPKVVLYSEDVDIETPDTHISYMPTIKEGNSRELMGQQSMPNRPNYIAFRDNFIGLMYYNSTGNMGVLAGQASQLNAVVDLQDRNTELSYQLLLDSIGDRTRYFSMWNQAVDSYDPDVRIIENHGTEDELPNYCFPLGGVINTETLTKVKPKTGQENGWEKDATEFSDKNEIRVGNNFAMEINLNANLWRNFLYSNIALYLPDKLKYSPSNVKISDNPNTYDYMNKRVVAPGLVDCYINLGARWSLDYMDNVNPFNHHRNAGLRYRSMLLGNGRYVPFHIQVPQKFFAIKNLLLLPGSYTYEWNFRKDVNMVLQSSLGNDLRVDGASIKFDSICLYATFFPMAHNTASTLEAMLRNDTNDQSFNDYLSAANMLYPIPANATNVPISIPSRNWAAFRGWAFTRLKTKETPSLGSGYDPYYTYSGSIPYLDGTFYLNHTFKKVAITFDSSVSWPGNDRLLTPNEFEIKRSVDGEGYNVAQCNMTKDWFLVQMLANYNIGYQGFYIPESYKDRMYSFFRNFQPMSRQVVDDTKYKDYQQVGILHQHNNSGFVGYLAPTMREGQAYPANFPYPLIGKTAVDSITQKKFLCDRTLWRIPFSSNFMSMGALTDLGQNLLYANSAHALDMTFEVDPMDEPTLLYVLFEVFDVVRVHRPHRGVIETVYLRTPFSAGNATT

coagulation factor X, sequence (P00742 41-488): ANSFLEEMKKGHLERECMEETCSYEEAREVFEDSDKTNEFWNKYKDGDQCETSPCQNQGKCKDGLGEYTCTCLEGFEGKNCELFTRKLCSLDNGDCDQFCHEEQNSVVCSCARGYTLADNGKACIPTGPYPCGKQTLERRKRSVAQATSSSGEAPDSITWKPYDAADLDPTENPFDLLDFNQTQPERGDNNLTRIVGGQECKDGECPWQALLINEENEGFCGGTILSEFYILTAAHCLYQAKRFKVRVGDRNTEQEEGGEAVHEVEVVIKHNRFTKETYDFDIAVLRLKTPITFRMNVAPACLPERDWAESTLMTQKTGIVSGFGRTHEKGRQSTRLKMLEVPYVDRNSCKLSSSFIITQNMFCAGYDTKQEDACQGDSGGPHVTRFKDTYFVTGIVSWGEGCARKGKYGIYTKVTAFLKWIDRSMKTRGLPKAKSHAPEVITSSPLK

Question: With “coagulation factor X (from UniProt P00742)” as the substance, how does the Kd read?
Answer: The Kd was 2 nM.
